Laboratory results: article PMC6073470 (International Journal of Molecular Sciences, 2018)
Where a chain is given by its changes, count along the chain named. Names may count otherwise. Like-named read-outs stand apart in the source and are kept apart here.

T1: human small heat shock protein HspB8, wild type (human), Q9UJY1
T1 chain: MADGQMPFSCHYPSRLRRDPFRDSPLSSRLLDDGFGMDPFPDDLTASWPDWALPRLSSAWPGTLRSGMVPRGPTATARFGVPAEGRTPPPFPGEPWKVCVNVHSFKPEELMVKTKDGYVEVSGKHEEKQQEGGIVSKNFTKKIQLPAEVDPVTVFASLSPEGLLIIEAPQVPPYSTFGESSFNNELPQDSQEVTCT

T2: human small heat shock protein HspB6, wild type (human), O14558
T2 chain: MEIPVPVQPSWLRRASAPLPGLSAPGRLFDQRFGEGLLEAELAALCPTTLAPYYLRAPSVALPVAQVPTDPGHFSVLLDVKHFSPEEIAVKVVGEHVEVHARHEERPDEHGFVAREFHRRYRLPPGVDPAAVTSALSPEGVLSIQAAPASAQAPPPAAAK

B1: human small heat shock protein HspB8, wild type, Q9UJY1 1-196 (natural protein)
chain: T1 chain
B2: human small heat shock protein HspB6, wild type, O14558 1-160 (natural protein)
chain: T2 chain
B3: R29A mutant of human HspB8 (natural protein, UniProt Q9UJY1 1-196, looked up)
chain: T1 chain with R29A
notes: HspB8, human; UniProt Q9UJY1; Arg29 of the RLFDQxFG motif replaced by Ala; Expressed from pET23b; also called R29A HspB8; source: E. coli BL21(DE3)pLysS, purified (ammonium sulfate fractionation, HiTrap Phenyl Sepharose, Superdex-200 SEC)
B4: R21A mutant of human HspB4 (natural protein, UniProt P02489 1-173, looked up)
chain: MDVTIQHPWFKRTLGPFYPSALFDQFFGEGLFEYDLLPFLSSTISPYYRQSLFRTVLDSGISEVRSDRDKFVIFLDVKHFSPEDLTVKVQDDFVEIHGKHNERQDDHGYISREFHRRYRLPSNVDQSALSCSLSADGMLTFCGPKIQTGLDATHAERAIPVSREEKPTSAPSS
B5: human small heat shock protein HspB5 (alphaB-crystallin), wild type (natural protein, UniProt P02511 1-175, looked up)
chain: MDIAIHHPWIRRPFFPFHSPSRLFDQFFGEHLLESDLFPTSTSLSPFYLRPPSFLRAPSWFDTGLSEMRLEKDRFSVNLDVKHFSPEELKVKVLGDVIEVHGKHEERQDEHGFISREFHRKYRIPADVDPLTITSSLSSDGVLTVNGPRKQVSGPERTIPITREEKPAVTAAPKK
notes: HspB5 (alphaB-crystallin), human; UniProt P02511; Expressed from pET23b; The printed monomeric mass (20.2 kDa) fits the whole protein; also called αB-crystallin; wild type HspB5; source: E. coli BL21(DE3)pLysS, purified (ammonium sulfate fractionation, HiTrap Q HP, Superdex-200 SEC)
B6: R22A mutant of human HspB5 (natural protein, UniProt P02511 1-175, looked up)
chain: B5 chain with R22A
notes: HspB5 (alphaB-crystallin), human; UniProt P02511; Arg22 of the RLFDQxFG motif replaced by Ala; Expressed from pET23b; also called R22A HspB5; source: E. coli BL21(DE3)pLysS, purified (ammonium sulfate fractionation, HiTrap Q HP, Superdex-200 SEC)
B7: R27A mutant of human HspB6 (natural protein, UniProt O14558 1-160, looked up)
chain: T2 chain with R27A
notes: HspB6, human; UniProt O14558; Arg27 of the RLFDQxFG motif replaced by Ala; Expressed from pET23b; also called R27A HspB6; R27A mutant of HspB6

Experiments:
[1] = target: T1, human small heat shock protein HspB8, …; test: SEC-SAXS; online SEC-SAXS, SWING beamline; Shodex KW404-4F; 20 mM HEPES, 150 mM NaCl, pH 7.4, 2.5 mM DTT; 5 mg/mL (230 uM) sample applied; mass from the volume of correlation; conditions: remark: other sources report otherwise
[2] = target: T1, human small heat shock protein HspB8, …; test: SEC; Superdex 200 HR 10/30; 20 mM Tris/acetate pH 7.6, 150 mM NaCl, 0.1 mM EDTA, 0.1 mM PMSF, 15 mM beta-mercaptoethanol; 10-120 ug protein in 100 uL loaded; apparent mass from calibration, estimated number of subunits; conditions: remark: other sources report otherwise
[3] = target: T2, human small heat shock protein HspB6, …; test: as above; conditions: remark: other sources report otherwise
[4] = target: the molecule itself; test: as above
[5] = target: the molecule itself; test: as above; remark: listed apart in the source

Binder	stoichiometry N [4] [monomers]	other results
B1	–	stoichiometry N [1]: 2 monomers; stoichiometry N [2]: 2 monomers
B2	–	stoichiometry N [3]: 3 monomers
B3	~3	stoichiometry N [5]: 4 monomers
B4	~30	–
B5	~27	–
B6	~23	–
B7	~3	–
